{
  "source": "paper doi:10.1101/2024.06.06.597810",
  "about": "(2024)",
  "binders": {"B1": {"name": "S2P6 UCA VH Y32Q/M48I double mutant Fab (Fab, V domains shown)", "VH": "QVQLVQSGAEVKKPGASVKVSCKASGYTFTSQYMHWVRQAPGQGLEWIGIINPSGGSTSYAQKFQGRVTMTRDTSTSTVYMELSSLRSEDTAVYYCARGSPKGAFDYWGQGTLVTVSS", "VL": "not shown"}, "B2": {"name": "S2P6 UCA VH Y32Q Fab (Fab, V domains shown)", "VH": "B1 VH with I48M", "VL": "not shown"}, "B3": {"name": "S2P6 UCA VH M48I Fab (Fab, V domains shown)", "VH": "B1 VH with Q32Y", "VL": "not shown"}, "B4": {"name": "S2P6 UCA VH S56H Fab (Fab, V domains shown)", "VH": "B1 VH with Q32Y, I48M, S57H", "VL": "not shown"}, "B5": {"name": "S2P6 UCA VH Y32Q/M48I/S56H triple mutant Fab (Fab, V domains shown)", "VH": "B1 VH with S57H", "VL": "not shown"}, "B6": {"name": "S2P6 UCA VH M48I/S56H double mutant Fab (Fab, V domains shown)", "VH": "B1 VH with Q32Y, S57H", "VL": "not shown"}},
  "note": "Residue numbers refer to the chain shown, from its start. Names may count otherwise. Where no end group is shown, it is not given here.",
  "data": [
    {"target": "T1, Biotin-labeled MHV stem helix peptide (MHV, also: biotin label, position not given here)", "T1 chain": "PDFKEELDKWFKNQ", "assay": "BLI", "units": {"Kd": "nM"}, "values": [
      {"binder": "B1", "Kd": 1190},
      {"binder": "B2", "Kd": 2260},
      {"binder": "B3", "Kd": 731},
      {"binder": "B4", "Kd": 3760},
      {"binder": "B5", "Kd": 2230},
      {"binder": "B6", "Kd": 1300}
    ]}
  ]
}
